Results on 13 molecules are retold here after article PMC11950852, “Diversity Scale of Library Matters: Impact of mRNA Library Diversity Scales on the Discovery of Macrocyclic Peptides Targeting a Protein by the RaPID System” (ACS Central Science, 2025).

The target in assay [1] is T1, ectodomain of MET fused to Fc (UniProt P08581 25-932).
T1 chain: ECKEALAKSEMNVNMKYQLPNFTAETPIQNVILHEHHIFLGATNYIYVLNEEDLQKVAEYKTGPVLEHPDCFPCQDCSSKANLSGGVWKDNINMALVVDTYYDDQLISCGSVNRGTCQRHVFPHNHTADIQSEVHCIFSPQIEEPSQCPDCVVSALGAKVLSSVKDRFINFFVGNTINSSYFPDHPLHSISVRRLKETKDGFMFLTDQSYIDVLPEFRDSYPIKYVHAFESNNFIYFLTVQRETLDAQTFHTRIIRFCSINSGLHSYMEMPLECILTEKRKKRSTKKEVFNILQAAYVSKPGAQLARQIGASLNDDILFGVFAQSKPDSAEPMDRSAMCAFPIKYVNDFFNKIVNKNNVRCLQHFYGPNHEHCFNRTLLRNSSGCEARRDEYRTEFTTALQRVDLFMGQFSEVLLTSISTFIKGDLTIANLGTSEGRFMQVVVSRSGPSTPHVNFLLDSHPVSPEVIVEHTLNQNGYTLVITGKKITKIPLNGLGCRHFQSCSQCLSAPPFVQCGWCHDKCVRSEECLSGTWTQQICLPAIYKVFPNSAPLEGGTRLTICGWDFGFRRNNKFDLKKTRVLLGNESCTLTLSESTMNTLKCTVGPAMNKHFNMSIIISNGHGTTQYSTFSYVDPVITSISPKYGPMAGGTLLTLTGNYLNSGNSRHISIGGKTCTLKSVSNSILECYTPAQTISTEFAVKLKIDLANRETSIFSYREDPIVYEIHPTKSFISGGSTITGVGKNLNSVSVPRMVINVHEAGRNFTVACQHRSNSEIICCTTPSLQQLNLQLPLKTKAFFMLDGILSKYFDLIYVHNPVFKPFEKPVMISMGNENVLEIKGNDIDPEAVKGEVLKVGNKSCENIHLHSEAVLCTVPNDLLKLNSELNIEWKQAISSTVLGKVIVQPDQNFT
Nature of the assay: SPR. (In general: In SPR one partner is held on a chip, and binding of the other changes the refractive index at the surface.)

In assay [2] the target is T2, ectodomain of MET fused to Fc (UniProt P08581 25-932).
T2 construct: MET (hepatocyte growth factor receptor), a receptor tyrosine kinase; also called MET-Fc; Fc-tagged MET
Description: SPR; fitted by a 1:1 binding model; who was immobilised and the conditions are in the Supporting Information (not shown). The note with it: both partners purified.

In assay [3] the target is T1, ectodomain of MET fused to Fc. Nature of the assay: SPR.

Bridges are numbered along the chain shown (N, C = ends). Where no end group is shown, it is not given here. [ ]: non-standard residue; d: D form.

B1: 10–1 (peptide)
chain: {CH2CO}-YYSWSGSVSESVKWNSCG-NH2
modifications: thioether N-17
SMILES: CC(C)[C@@H]1NC(=O)[C@H](CO)NC(=O)CNC(=O)[C@H](CO)NC(=O)[C@H](Cc2c[nH]c3ccccc23)NC(=O)[C@H](CO)NC(=O)[C@H](Cc2ccc(O)cc2)NC(=O)[C@H](Cc2ccc(O)cc2)NC(=O)CSC[C@@H](C(=O)NCC(N)=O)NC(=O)[C@H](CO)NC(=O)[C@H](CC(N)=O)NC(=O)[C@H](Cc2c[nH]c3ccccc23)NC(=O)[C@H](CCCCN)NC(=O)[C@H](C(C)C)NC(=O)[C@H](CO)NC(=O)[C@H](CCC(=O)O)NC(=O)[C@H](CO)NC1=O
A word on the koff: it is a measure of how fast the partners let go of each other. The low end stands for slow dissociation, the high end for fast dissociation. For the molecule B1, the koff in assay [1] was 0.00878 s⁻¹; in assay [2], approximately 0.01 s⁻¹.

B2: 12–1 (peptide)
chain: {CH2CO}-YISWFAYASKDWFVRPCG-NH2
modifications: thioether N-17
SMILES: CC[C@H](C)[C@@H]1NC(=O)[C@H](Cc2ccc(O)cc2)NC(=O)CSC[C@@H](C(=O)NCC(N)=O)NC(=O)[C@@H]2CCCN2C(=O)[C@H](CCCNC(=N)N)NC(=O)[C@H](C(C)C)NC(=O)[C@H](Cc2ccccc2)NC(=O)[C@H](Cc2c[nH]c3ccccc23)NC(=O)[C@H](CC(=O)O)NC(=O)[C@H](CCCCN)NC(=O)[C@H](CO)NC(=O)[C@H](C)NC(=O)[C@H](Cc2ccc(O)cc2)NC(=O)[C@H](C)NC(=O)[C@H](Cc2ccccc2)NC(=O)[C@H](Cc2c[nH]c3ccccc23)NC(=O)[C@H](CO)NC1=O
The term Kd denotes the free concentration of one partner at which half of the binding sites on the other are occupied at equilibrium, for simple one-to-one binding. As for B2, the affinity in assay [3], expressed as Kd, was 0.032 µM. Besides, in assay [2], the koff is 0.00254 s⁻¹.
On the same counts, the results for {CH2CO}-YFYYNWTNVAKWAKTLCG (thioether N-17 (inferred)) [6–2] are 0.102 µM and 0.0074 s⁻¹.

B3: aML5 (peptide)
peptide: {CH2CO}-YISWNEFNSPNWRFITCG-NH2
modifications: thioether N-17
SMILES: CC[C@H](C)[C@@H]1NC(=O)[C@H](Cc2ccc(O)cc2)NC(=O)CSC[C@@H](C(=O)NCC(N)=O)NC(=O)[C@H]([C@@H](C)O)NC(=O)[C@H]([C@@H](C)CC)NC(=O)[C@H](Cc2ccccc2)NC(=O)[C@H](CCCNC(=N)N)NC(=O)[C@H](Cc2c[nH]c3ccccc23)NC(=O)[C@H](CC(N)=O)NC(=O)[C@@H]2CCCN2C(=O)[C@H](CO)NC(=O)[C@H](CC(N)=O)NC(=O)[C@H](Cc2ccccc2)NC(=O)[C@H](CCC(=O)O)NC(=O)[C@H](CC(N)=O)NC(=O)[C@H](Cc2c[nH]c3ccccc23)NC(=O)[C@H](CO)NC1=O
notes: Benchmark macrocycle from an earlier RaPID selection; measured again here; also called 17-mer aML5
Consider B3, for which the koff in assay [1] came out at 0.00606 s⁻¹. Moreover, in assay [2], the Kd worked out at 0.0112 µM.

B4: 14–2 (peptide)
chain: {CH2CO}-YYSWSGKDVDSVIWNNCG-NH2
modifications: thioether N-17
SMILES: CC[C@H](C)[C@@H]1NC(=O)[C@H](C(C)C)NC(=O)[C@H](CO)NC(=O)[C@H](CC(=O)O)NC(=O)[C@H](C(C)C)NC(=O)[C@H](CC(=O)O)NC(=O)[C@H](CCCCN)NC(=O)CNC(=O)[C@H](CO)NC(=O)[C@H](Cc2c[nH]c3ccccc23)NC(=O)[C@H](CO)NC(=O)[C@H](Cc2ccc(O)cc2)NC(=O)[C@H](Cc2ccc(O)cc2)NC(=O)CSC[C@@H](C(=O)NCC(N)=O)NC(=O)[C@H](CC(N)=O)NC(=O)[C@H](CC(N)=O)NC(=O)[C@H](Cc2c[nH]c3ccccc23)NC1=O
In assay [1], B4 showed a koff of 0.00182 s⁻¹. In assay [3], the affinity, expressed as Kd, was 0.00393 µM.
In turn, {CH2CO}-YNCLWVECKIVLPNGRCG (disulfide 8-17; thioether N-3) [12–4] had a Kd in assay [3] of 0.0158 µM. Moreover, the koff in assay [2] came to 0.00721 s⁻¹.

B5: 14–4 (peptide)
chain: {CH2CO}-YYSWTGRDFDAVKWNKCG-NH2
modifications: thioether N-17
SMILES: CC(C)[C@@H]1NC(=O)[C@H](C)NC(=O)[C@H](CC(=O)O)NC(=O)[C@H](Cc2ccccc2)NC(=O)[C@H](CC(=O)O)NC(=O)[C@H](CCCNC(=N)N)NC(=O)CNC(=O)[C@H]([C@@H](C)O)NC(=O)[C@H](Cc2c[nH]c3ccccc23)NC(=O)[C@H](CO)NC(=O)[C@H](Cc2ccc(O)cc2)NC(=O)[C@H](Cc2ccc(O)cc2)NC(=O)CSC[C@@H](C(=O)NCC(N)=O)NC(=O)[C@H](CCCCN)NC(=O)[C@H](CC(N)=O)NC(=O)[C@H](Cc2c[nH]c3ccccc23)NC(=O)[C@H](CCCCN)NC1=O
In the case of B5, in assay [1], the koff was 0.00198 s⁻¹. The molecule also returned a Kd in assay [3] of 0.00249 µM.

B6: 14–3 (peptide)
chain: {CH2CO}-YLSWSEFDSKNWSLAYCG-NH2
modifications: thioether N-17
SMILES: CC(C)C[C@@H]1NC(=O)[C@H](CO)NC(=O)[C@H](Cc2c[nH]c3ccccc23)NC(=O)[C@H](CC(N)=O)NC(=O)[C@H](CCCCN)NC(=O)[C@H](CO)NC(=O)[C@H](CC(=O)O)NC(=O)[C@H](Cc2ccccc2)NC(=O)[C@H](CCC(=O)O)NC(=O)[C@H](CO)NC(=O)[C@H](Cc2c[nH]c3ccccc23)NC(=O)[C@H](CO)NC(=O)[C@H](CC(C)C)NC(=O)[C@H](Cc2ccc(O)cc2)NC(=O)CSC[C@@H](C(=O)NCC(N)=O)NC(=O)[C@H](Cc2ccc(O)cc2)NC(=O)[C@H](C)NC1=O
In assay [1], B6 gave a koff of 0.00297 s⁻¹. Further, binding in assay [3] was put at a Kd of 0.035 µM.
{CH2CO}-YWVYGFGKLNNDWRAFCG (thioether N-17 (inferred)) [14–1]: the koff in assay [1] turned out to be 0.000739 s⁻¹. For the same molecule, binding in assay [3] was put at a Kd of 0.00287 µM.

B7: 14–6 (peptide)
chain: {CH2CO}-YIEWYVYDSKSWVYVRCG-NH2
modifications: thioether N-17
SMILES: CC[C@H](C)[C@@H]1NC(=O)[C@H](Cc2ccc(O)cc2)NC(=O)CSC[C@@H](C(=O)NCC(N)=O)NC(=O)[C@H](CCCNC(=N)N)NC(=O)[C@H](C(C)C)NC(=O)[C@H](Cc2ccc(O)cc2)NC(=O)[C@H](C(C)C)NC(=O)[C@H](Cc2c[nH]c3ccccc23)NC(=O)[C@H](CO)NC(=O)[C@H](CCCCN)NC(=O)[C@H](CO)NC(=O)[C@H](CC(=O)O)NC(=O)[C@H](Cc2ccc(O)cc2)NC(=O)[C@H](C(C)C)NC(=O)[C@H](Cc2ccc(O)cc2)NC(=O)[C@H](Cc2c[nH]c3ccccc23)NC(=O)[C@H](CCC(=O)O)NC1=O
B7 came in with a koff in assay [1] of 0.00564 s⁻¹. Moreover, the equilibrium dissociation constant (Kd) in assay [3] stood at 0.0315 µM.

B8: 12–5 (peptide)
chain: {CH2CO}-YLVWHEYDSKKWYFSLCG-NH2
modifications: thioether N-17
SMILES: CC(C)C[C@@H]1NC(=O)[C@H](CO)NC(=O)[C@H](Cc2ccccc2)NC(=O)[C@H](Cc2ccc(O)cc2)NC(=O)[C@H](Cc2c[nH]c3ccccc23)NC(=O)[C@H](CCCCN)NC(=O)[C@H](CCCCN)NC(=O)[C@H](CO)NC(=O)[C@H](CC(=O)O)NC(=O)[C@H](Cc2ccc(O)cc2)NC(=O)[C@H](CCC(=O)O)NC(=O)[C@H](Cc2c[nH]cn2)NC(=O)[C@H](Cc2c[nH]c3ccccc23)NC(=O)[C@H](C(C)C)NC(=O)[C@H](CC(C)C)NC(=O)[C@H](Cc2ccc(O)cc2)NC(=O)CSC[C@@H](C(=O)NCC(N)=O)NC1=O
In assay [1], B8 returned a koff of 0.002 s⁻¹. The Kd in assay [3] came out at 0.0154 µM.
As to {CH2CO}-[dY]RQFNRRTHEVWNLDCG (thioether N-16 (inferred)) [aMD4], in assay [1], the koff came out at 0.00676 s⁻¹. The molecule also came in with a Kd in assay [2] of 0.0037 µM.

B9: 14–5 (peptide)
chain: {CH2CO}-YLSWKYYDSSDWVILSCG-NH2
modifications: thioether N-17
SMILES: CC[C@H](C)[C@@H]1NC(=O)[C@H](C(C)C)NC(=O)[C@H](Cc2c[nH]c3ccccc23)NC(=O)[C@H](CC(=O)O)NC(=O)[C@H](CO)NC(=O)[C@H](CO)NC(=O)[C@H](CC(=O)O)NC(=O)[C@H](Cc2ccc(O)cc2)NC(=O)[C@H](Cc2ccc(O)cc2)NC(=O)[C@H](CCCCN)NC(=O)[C@H](Cc2c[nH]c3ccccc23)NC(=O)[C@H](CO)NC(=O)[C@H](CC(C)C)NC(=O)[C@H](Cc2ccc(O)cc2)NC(=O)CSC[C@@H](C(=O)NCC(N)=O)NC(=O)[C@H](CO)NC(=O)[C@H](CC(C)C)NC1=O
As to B9, the koff in assay [1] worked out at 0.00836 s⁻¹. This molecule registered a Kd in assay [3] of 0.0647 µM.
